Data published in US20260193377A1.

What was measured:
[1] = target: GCC expressed on T84 cells (UniProt P25092); assay: flow cytometry on T84 cells expressing GCC, 300 nm [sic], PE-anti human Fc secondary; Blank 15.0
[2] = target: GCC expressed on T84 cells (UniProt P25092); assay: flow cytometry on T84 cells expressing GCC, 300 nm [sic], PE-anti human Fc secondary; Blank 30.7

Sequence of GCC expressed on T84 cells (P25092 24-1073 limits assumed): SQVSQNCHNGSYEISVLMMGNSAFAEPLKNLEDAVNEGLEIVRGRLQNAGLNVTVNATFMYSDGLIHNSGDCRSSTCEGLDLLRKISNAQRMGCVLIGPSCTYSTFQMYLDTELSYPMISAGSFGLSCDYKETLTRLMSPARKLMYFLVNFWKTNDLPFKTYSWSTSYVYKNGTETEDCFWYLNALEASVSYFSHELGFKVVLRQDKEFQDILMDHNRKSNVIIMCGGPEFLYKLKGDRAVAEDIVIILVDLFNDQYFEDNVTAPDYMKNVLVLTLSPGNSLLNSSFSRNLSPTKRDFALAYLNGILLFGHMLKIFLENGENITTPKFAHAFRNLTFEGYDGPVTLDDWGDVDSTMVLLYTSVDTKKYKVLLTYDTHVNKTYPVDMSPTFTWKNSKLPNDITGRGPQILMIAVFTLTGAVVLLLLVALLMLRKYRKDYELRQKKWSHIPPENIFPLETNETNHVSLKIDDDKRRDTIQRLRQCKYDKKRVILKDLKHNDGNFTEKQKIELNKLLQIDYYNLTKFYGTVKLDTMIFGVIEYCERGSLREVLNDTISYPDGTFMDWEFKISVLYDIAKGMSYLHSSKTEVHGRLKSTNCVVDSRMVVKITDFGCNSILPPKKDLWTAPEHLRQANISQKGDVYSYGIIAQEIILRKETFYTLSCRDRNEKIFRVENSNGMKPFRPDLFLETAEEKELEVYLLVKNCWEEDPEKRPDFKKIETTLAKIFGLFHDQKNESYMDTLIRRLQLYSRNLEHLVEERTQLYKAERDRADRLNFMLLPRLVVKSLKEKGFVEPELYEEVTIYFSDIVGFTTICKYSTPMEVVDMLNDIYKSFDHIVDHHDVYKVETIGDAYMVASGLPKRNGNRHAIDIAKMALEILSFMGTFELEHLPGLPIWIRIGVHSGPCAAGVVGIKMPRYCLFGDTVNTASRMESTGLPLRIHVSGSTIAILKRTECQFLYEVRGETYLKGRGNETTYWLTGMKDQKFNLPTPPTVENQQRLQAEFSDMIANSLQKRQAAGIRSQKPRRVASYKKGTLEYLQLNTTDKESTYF

Geometric mean MFI [1]: 17.7
Geometric mean MFI [2]: 30.7
Substance: Human IgG1 isotype (antibody)
